Measured values: US20230087785A1, “Leucine-Rich Repeat Kinase 2 Allosteric Modulators” (VIB VZW, priority 2020, published 2023)

B1: Nb10: LRRK2-specific Nanobody, SEQ ID NO: 15 (protein)
VHH: MAQVQLVESGGGLVQPGGSLRLSCAASGSIFSIYAMGWYRQAPGKQRELVAAITSGGDTNYADSVKGRFTISRDNAKNTVYLQMNSLKPEDTAVYYCNADHTPAGTFQTFDYWGQGTQVTVSS
modifications: Nanobody CA13599
B2: Nb13: LRRK2-specific Nanobody, SEQ ID NO: 16 (protein)
VHH: MAQVQLVESGGGLVQPGGSLRLSCAASGSGFSIYAMGWARQAPGRQRELVAAITSGGSTNYADSVKGRFTISRDNAKNTVYLQMNSLKPEDTAVYYCNADITVVAGSTYDYWGQGTQVTVSS
modifications: Nanobody CA13602
B3: Nb31: LRRK2-specific Nanobody, SEQ ID NO: 13 (protein)
VHH: MAQVQLVESGGGLVQAGGSLRLSCATSGLTFGTYAMAWFRQAAEKEREFVAFISGRGGYRDYADSVKGRLTIFRDNAKNNAKNTVYLQMNNLKPEDTAVYYCAARQGSPVRSKEEYNNWGQGTQVTVSS
modifications: Nanobody CA13620
B4: Nb37: LRRK2-specific Nanobody, SEQ ID NO: 14 (protein)
VHH: MAQVQLVESGGGLVQPGGSLRLSCAASGSVFSTNTMAWFRQAPGKQREWVGGITPGGFTNYINSVKGRFTISRDNANNTIYLQMSSLRPEDTAVYYCNTLSRMALWGQGTQVTVSS
modifications: Nanobody CA14131
B5: Nb41: LRRK2-specific Nanobody, SEQ ID NO: 12 (protein)
VHH: MAQVQLVESGGGLVQAGGSLRLSCEASVRTFSFYSMGWFRQAPGKEREFVAAIRWTAGSTSYADIVKGRFTISRDNGKNTVVLQMNSLEPEDTGVYYCAAQRGYLVEAASREYDYWGQGTQVTVSS
modifications: Nanobody CA14136
B6: Nb9: LRRK2-specific Nanobody, SEQ ID NO: 17 (protein)
VHH: MAQVQLVESGGGLVQPGGSLRLSCAASGSIFSINAMGWYRQAPGKQRELVAAITSGGRTNYADSVRGRFTISRDHAKNTVYLQMNSLKPEDTAVYYCNAGDWQTMYDYWGQGTQVTVSS
modifications: Nanobody CA13598
B7: Nb28: LRRK2-specific Nanobody, SEQ ID NO: 18 (protein)
VHH: MAQVQLVESGGGLVQAGGSLRLSCAASGIIFHWYDMDWYRQAPGKQRELVATITTGGRADYADFVKGRFSISRDNAKTTVYLQMNSLKPEDTAVYYCSFQDHVLRRWGQGTQVTVSS
modifications: Nanobody CA13617
B8: Nb3: LRRK2-specific Nanobody, SEQ ID NO: 11 (protein)
VHH: MAQVQLVESGGGLVQPGGSLRLSCAASGSIFRRNAMGWYRQVTGKERELVAGITSGGYTNYRDFVKGRFTISRDNAKNTVYLQMNNLKPEDTAVYYCNLLSEMLQTVWGQGTQVTVSS
modifications: Nanobody CA12614

Target: T1, LRRK2(G2019S) (Homo sapiens, UniProt Q5S007, G2019S/M2397T/R50H)
T1 construct: SF tag (FLAG + Twin-Strep); expressed in transfected cells; host or cells: HEK 293T
T1 sequence (Q5S007 whole entry R50H/G2019S/M2397T): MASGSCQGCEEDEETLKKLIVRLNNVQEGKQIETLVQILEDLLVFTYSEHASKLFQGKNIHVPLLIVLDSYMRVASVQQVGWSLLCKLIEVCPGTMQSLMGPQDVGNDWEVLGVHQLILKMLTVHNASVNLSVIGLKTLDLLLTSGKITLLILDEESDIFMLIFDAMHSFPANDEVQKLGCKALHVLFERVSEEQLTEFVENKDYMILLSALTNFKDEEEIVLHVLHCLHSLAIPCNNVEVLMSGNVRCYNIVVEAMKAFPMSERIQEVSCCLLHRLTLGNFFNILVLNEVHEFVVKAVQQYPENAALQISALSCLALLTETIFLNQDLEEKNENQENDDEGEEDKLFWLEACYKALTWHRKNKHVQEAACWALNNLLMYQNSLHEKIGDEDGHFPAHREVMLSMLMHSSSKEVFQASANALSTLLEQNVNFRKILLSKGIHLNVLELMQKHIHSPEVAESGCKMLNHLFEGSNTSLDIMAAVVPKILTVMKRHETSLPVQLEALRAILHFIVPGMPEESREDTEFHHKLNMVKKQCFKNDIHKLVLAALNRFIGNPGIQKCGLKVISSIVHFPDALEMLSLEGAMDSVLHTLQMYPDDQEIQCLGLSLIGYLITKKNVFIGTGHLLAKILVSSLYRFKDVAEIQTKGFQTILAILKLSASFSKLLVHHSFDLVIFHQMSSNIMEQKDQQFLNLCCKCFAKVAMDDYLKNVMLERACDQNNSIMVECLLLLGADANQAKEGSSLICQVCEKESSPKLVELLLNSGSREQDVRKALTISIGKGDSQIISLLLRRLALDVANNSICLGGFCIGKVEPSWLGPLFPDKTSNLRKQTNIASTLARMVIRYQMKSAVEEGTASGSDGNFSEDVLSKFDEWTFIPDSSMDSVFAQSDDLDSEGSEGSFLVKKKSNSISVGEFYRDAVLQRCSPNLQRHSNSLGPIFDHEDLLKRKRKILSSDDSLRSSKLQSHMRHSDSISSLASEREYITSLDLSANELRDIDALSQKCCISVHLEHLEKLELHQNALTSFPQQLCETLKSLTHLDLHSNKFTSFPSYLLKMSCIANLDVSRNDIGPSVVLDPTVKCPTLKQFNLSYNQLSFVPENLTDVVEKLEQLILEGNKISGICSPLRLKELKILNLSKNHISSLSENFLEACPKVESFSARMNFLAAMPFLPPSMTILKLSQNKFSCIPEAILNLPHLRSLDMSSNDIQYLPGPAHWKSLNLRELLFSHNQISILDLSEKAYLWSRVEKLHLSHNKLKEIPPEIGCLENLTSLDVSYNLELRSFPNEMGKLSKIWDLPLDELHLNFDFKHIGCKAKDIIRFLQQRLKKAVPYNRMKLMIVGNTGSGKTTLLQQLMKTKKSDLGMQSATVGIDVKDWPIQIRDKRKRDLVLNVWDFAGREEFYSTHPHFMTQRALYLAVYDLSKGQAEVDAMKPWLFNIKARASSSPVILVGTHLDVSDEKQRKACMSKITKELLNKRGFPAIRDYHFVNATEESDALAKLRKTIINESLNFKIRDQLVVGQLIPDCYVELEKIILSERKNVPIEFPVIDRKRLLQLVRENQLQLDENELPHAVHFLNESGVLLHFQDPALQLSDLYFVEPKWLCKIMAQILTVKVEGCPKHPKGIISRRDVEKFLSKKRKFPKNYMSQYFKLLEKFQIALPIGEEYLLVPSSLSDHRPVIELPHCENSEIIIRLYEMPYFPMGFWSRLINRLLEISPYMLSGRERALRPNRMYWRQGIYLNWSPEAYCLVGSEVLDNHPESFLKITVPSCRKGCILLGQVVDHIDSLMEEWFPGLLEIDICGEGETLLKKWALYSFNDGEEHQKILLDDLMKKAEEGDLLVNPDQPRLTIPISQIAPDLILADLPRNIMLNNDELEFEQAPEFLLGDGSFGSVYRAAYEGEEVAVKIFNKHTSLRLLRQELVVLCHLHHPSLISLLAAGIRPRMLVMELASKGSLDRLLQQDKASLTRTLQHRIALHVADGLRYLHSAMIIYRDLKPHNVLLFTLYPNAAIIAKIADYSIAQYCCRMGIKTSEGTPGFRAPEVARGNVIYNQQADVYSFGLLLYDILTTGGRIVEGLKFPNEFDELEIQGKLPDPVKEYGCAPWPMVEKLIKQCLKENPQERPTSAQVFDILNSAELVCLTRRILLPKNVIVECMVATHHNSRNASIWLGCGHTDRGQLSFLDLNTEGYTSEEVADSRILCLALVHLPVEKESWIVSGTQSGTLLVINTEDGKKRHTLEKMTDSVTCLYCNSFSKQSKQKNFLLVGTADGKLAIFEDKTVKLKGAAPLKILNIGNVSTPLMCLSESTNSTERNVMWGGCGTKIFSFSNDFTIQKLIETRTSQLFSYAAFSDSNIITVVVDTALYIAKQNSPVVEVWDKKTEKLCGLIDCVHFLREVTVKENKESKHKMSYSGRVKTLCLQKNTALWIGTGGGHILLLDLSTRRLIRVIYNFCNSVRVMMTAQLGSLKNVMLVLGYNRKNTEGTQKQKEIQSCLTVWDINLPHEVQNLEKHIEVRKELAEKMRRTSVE
Assay: In cellulo phospho-Rab / LRRK2 autophosphorylation assay in HEK293T cells
Type: cell-based
Details: HEK 293T cells co-expressing LRRK2(G2019S), Rab29 and Nb-GFP; for influence on LRRK2 kinase activity compared to the controls: Western blot
Experimental: (FIGS. 2A-2C) LRRK2(G2019S) and its effector Rab29 were overexpressed together with GFP-fused Nbs (“Fluobody”) in HEK293T cells. A negative control, where no Nb is overexpressed (“No Nb”) is also included. […] In rows labeled “pLRRK2”, LRRK2 pS1292 levels are determined by Western Blot using a site-specific anti-pLRRK2(pS1292) antibody (Abcam, ab203181) (shown at different times of development). In the rows labeled “pRAB10”, endogenous pT72-Rab10 levels are determined by Western Blot using the MJFF/Abcam antibody MJF-R21 (Abcam, ab230261) (shown at different times of development). The three lower rows contain controls of LRRK2 (rat anti-LRRK2, 24D8), Fluobody (rat anti-GFP) and Rab10 (rabbit anti-Rab10) expression levels. (FIG. 2D) Based on the results of panels (FIGS. 2A-2C) the Nbs can be divided into 4 functional groups, with group 1: Nbs that inhibit both LRRK2 autophosphorylation and Rab10 phosphorylation in cells; group 2: Nbs that inhibit only Rab10 phosphorylation; group 3: Nbs that activate LRRK2 kinase activity; group 4: Nbs that have no consistent/clear effect on LRRK2 kinase activity.
To assess the influence of the Nbs on LRRK2 kinase activity we monitored two physiologically and disease relevant activities of LRRK2: phosphorylation of the endogenous substrate Rab10 at position T72 and LRRK2 autophosphorylation at position S1292 [25-30]. […] In our cellular assay we thus co-expressed LRRK2(G2019S), Rab29 and the different Nb-GFP fusions in HEK 293T cells (FIG. 2a-c).
HEK 293T cells were cultured in DMEM (supplemented with 10% Fetal Bovine Serum, […] L-Glutamine and 0.5% Pen/Strep). For the assay, the cells were seeded onto six-well plates and transfected at a confluency of 50-70% with the individual Nb-GFP expression constructs, SF-tagged LRRK2(G2019S) and FLAG-HA Rab29 using a self-made polyethylenimine (PEI)-based transfection reagent. After 48 hrs cells were lysed in lysis buffer [30 mM Tris-HCL (pH7.4), 150 mM NaCl, 0.5% Nonident-P40, complete protease inhibitor cocktail, phosphatase inhibitor cocktail II & III (all Sigma)]. Lysates were cleared by centrifugation at 10,000×g and adjusted to a protein concentration of 1 μg/μl in 1× Laemmli Buffer. Samples were subsequently subjected to SDS PAGE and Western Blot analysis to determine LRRK2 pS1292 and Rab10 T72 phosphorylation levels, as described below. Total LRRK2 and Rab10 levels were determined as a reference.
For western blot analysis, protein samples were separated by SDS-PAGE using NuPAGE 10% Bis-Tris gels (Invitrogen) and transferred onto PVDF membranes (Thermo Fisher). To allow simultaneous probing for LRRK2 on the one hand and Rab and the Nb-GFP fusions on the other hand, membranes were cut horizontally at the 140 kDa MW marker band. After blocking non-specific binding sites with 5% non-fat dry milk in TBST (1 h, RT) (25 mM Tris, pH 7.4, 150 mM NaCl, 0.1% Tween-20), membranes were incubated overnight at 4° C. with primary antibodies at dilutions specified below. Phospho-specific antibodies were diluted in TBST/5% BSA (Roth GmbH). Non-phospho-specific antibodies were diluted in TBST/5% non-fat dry milk powder (BioRad). Phospho-Rab10 levels were determined by the site-specific rabbit monoclonal antibody anti-pRAB10([…]) (Abcam, ab230261) and LRRK2 autophosphorylation was determined by the site-specific rabbit monoclonal antibody anti-pLRRK2(pS1292) (Abcam, ab203181), both at a dilution of 1:2,000. Total LRRK2 levels were determined by the in-house rat monoclonal antibody anti-pan-LRRK2 (clone 24D8; 1:10,000). Total Rab10 levels were determined by the rabbit monoclonal antibody anti-RAB10/ERP13424 (Abcam, ab181367) at a dilution of 1:5,000. Nb-GFP fusion proteins were detected using the rat monoclonal antibody anti-GFP (clone 3H9, ChromoTec) at a dilution of 1:2,000. For detection, goat anti-rat IgG or anti-rabbit IgG HRP-coupled secondary antibodies (Jackson ImmunoResearch) were used at a dilution of 1:15,000 in TBST/5% non-fat dry milk powder. […]

Rab10 phosphorylation at position T72 (endogenous Rab10) | Molecule | influence on LRRK2 kinase activity compared to the controls | LRRK2 autophosphorylation at position S1292
– | B1 | no influence on LRRK2 kinase activity | –
– | B2 | no influence on LRRK2 kinase activity | –
– | B3 | no influence on LRRK2 kinase activity | –
– | B4 | no influence on LRRK2 kinase activity | somewhat stronger inhibitory effect towards LRRK2 autophosphorylation
inhibit Rab10 phosphorylation | B5 | strongly decreased LRRK2 autophosphorylation and/or Rab10 phosphorylation | inhibiting S1292 phosphorylation at a lesser extent
– | B6 | no influence on LRRK2 kinase activity | –
– | B7 | significant increase of LRRK2 kinase activity | –
– | B8 | no influence on LRRK2 kinase activity | somewhat stronger inhibitory effect towards LRRK2 autophosphorylation
